Test results from article PMC6640692, “Canine CD117-Specific Antibodies with Diverse Binding Properties Isolated from a Phage Display Library Using Cell-Based Biopanning” (Antibodies, 2019).

Target: T1, recombinant canine CD117-ECD-human-Fc fused protein (canine, UniProt O97799 28-527)
T1 construct: canine CD117 (c-Kit) extracellular domain, amplified by PCR from a GeneArt-synthesized CD117 template (NP_001003181); The forward primer begins at the ATG start codon (MRGARG), so the secretion signal appears to be in the construct; Dimer through disulfide linkage in the hFc domain (non-reducing SDS-PAGE); also called CD117-hFc; ECD-CD117-hFc; source: CHO-S cells, transient transfection, purified …
Test: ELISA; competitive ELISA: plate coated with 1 ug/mL canine CD117-hFc; 50 ng/mL canine SCF-His pre-mixed with serially diluted mAbs (from 40 ug/mL) in 2% MPBS, RT 1 h; bound SCF detected with anti-His HRP
Conditions: both partners purified

T1 sequence (O97799 28-527): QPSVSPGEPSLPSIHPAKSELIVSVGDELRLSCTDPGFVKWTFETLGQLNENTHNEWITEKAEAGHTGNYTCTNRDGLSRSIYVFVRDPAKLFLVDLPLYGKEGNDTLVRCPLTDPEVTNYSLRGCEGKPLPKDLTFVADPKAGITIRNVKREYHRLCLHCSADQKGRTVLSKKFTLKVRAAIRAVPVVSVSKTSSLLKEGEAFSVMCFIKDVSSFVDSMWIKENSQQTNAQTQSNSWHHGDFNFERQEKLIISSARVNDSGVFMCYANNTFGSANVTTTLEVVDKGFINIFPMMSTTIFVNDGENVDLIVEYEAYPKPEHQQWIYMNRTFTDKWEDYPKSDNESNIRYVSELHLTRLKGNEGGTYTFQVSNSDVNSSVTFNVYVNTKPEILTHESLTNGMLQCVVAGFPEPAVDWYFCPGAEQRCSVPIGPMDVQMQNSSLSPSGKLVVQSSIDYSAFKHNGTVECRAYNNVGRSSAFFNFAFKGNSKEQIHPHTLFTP

- binding result: binds
B1: recombinant canine stem cell factor (SCF)-His (ligand, UniProt Q06220 26-191, looked up)
chain: KGICGKRVTDDVKDVTKLVANLPKDYKIALKYVPGMDVLPSHCWISVMVEQLSVSLTDLLDKFSNISEGLSNYSIIDKLVKIVDDLVECTEGYSFENVKKAPKSPELRLFTPEEFFRIFNRSIDAFKDLETVASKSSECVVSSTLSPDKDSRVSVTKPFMLPPVAA
notes: signal peptide in the construct; canine SCF, secretion signal and the soluble part of the extracellular domain, NP_001012753.1 residues 1 to 191; also called canine SCF; SCF-His-tag; source: CHO-S cells, transient transfection, purified from supernatant (HisTrap excel IMAC)
